In patent publication US20250195685A1 (CAPSTAN THERAPEUTICS, published 2025):

Experiments:
[1] = molecular target: T1, cynomolgus macaque CD8αα homodimer, recombinant protein (cynomolgus macaque); assay: BLI kinetic sensorgram, 1:1 global fit (legend: 30 °C; FIG. 2I prints 37 °C for the same constants)
T1 construct: also called cynomolgus CD8αα homodimer
Method: (§1) Biolayer interferometry kinetic assays were performed using a GatorBio Gator Plus BLI system. Kinetic buffer containing PBS plus 0.1% Tween 20 and 0.2% BSA was used for calculating the baseline. To measure the binding kinetics of anti-CD8α antibody fragment (Fab), streptavidin-immobilized SA-XT sensors (#160029, Gator Bio) were prehydrated in the kinetic buffer and loaded with […] biotinylated CD8α recombinant protein (CDA-H82E3, Acro Biosystems) at a spin speed of 400 rpm to a threshold response of 10 nm. The sensors were then incubated in the kinetic buffer for 300 s to acquire a baseline measurement prior to each association. […] The antigen-loaded sensors were incubated in the diluted solutions to capture Fab fragments for 300 s to record the association phase. Sensors were finally incubated in the kinetic buffer for 900 s to record the dissociation phase. The spin speed for all steps except the antigen loading step was 1000 rpm. The temperature of the performed assays was either 30° C. or 37° C. during the association and dissociation phases. Sensor data were baseline subtracted, and global curve fitting of the kinetic data from six different analyte concentrations at a 1:1 monovalent binding model was performed using GatorOne software (version v2.10) to determine kinetic rate constants (kₒₙ and koff) and equilibrium dissociation constants (KD) of the analyzed antibodies.
(§2) The binding kinetics of CBD1033 Fab and its parental CBD1017ch Fab against human CD8αα homodimer, human CD8αβ heterodimer, and cynomolgus macaque CD8ααhomodimer were assessed following the same method in BLI evaluation of humanized Fab variants. For evaluating the binding kinetics against cynomolgus macaque CD8αβ heterodimer protein, the antigen protein was directly coupled onto amine-reactive biosensor tips (Gator Bio) following the manufacturer protocol. Briefly, the sensors were activated for 300 s with a mixture of 1-ethyl-3-(3-dimethylaminopropyl)carbodiimide hydrochloride (EDC) (ThermoFisher Scientific) and 10 mM N-Hydroxysulfosuccinimide sodium salt (sulfo-NHS) (Sigma-Aldrich) in water.

[2] = molecular target: T2, cynomolgus macaque CD8αβ heterodimer, recombinant protein (cynomolgus macaque); assay: BLI kinetics, Fab, antigen amine-coupled to the sensor, 30 °C
T2 construct: In BLI coupled directly to amine-reactive sensor tips; also called cynomolgus CD8αβ heterodimer
Method: The binding kinetics of CBD1033 Fab and its parental CBD1017ch Fab against human CD8αα homodimer, human CD8αβ heterodimer, and cynomolgus macaque CD8ααhomodimer were assessed following the same method in BLI evaluation of humanized Fab variants. For evaluating the binding kinetics against cynomolgus macaque CD8αβ heterodimer protein, the antigen protein was directly coupled onto amine-reactive biosensor tips (Gator Bio) following the manufacturer protocol. Briefly, the sensors were activated for 300 s with a mixture of 1-ethyl-3-(3-dimethylaminopropyl)carbodiimide hydrochloride (EDC) (ThermoFisher Scientific) and 10 mM N-Hydroxysulfosuccinimide sodium salt (sulfo-NHS) (Sigma-Aldrich) in water. The cynomolgus macaque CD8αβ protein diluted to […] in 10 mM sodium acetate buffer, pH 6.0, was allowed to be covalently captured for 300 s to an approximate threshold of 5 nm, and the sensors were subsequently deactivated with 1 M ethanolamine (ETA) (Sigma-Aldrich) solution, pH 8.5, for 300 s. The sensors were then rinsed in the kinetic buffer for 600 s. The rinse step was repeated for an additional 120 s for baseline calculation prior to the measurements of the binding kinetics. The antibody fragment was diluted into kinetic buffer via 3-fold dilution at concentrations ranging from 1000 nM to 1.37 nM. As above, the antigen-captured sensors were incubated in the diluted solutions to capture the Fab fragments for 1200 s to record the association phase. Sensors were subsequently incubated in the kinetic buffer for 1200 s to record the dissociation phase. The shaking speed for all steps was 1000 rpm and the temperature of the performed assays were at 30° C. The kinetic parameters were determined with 1:1 monovalent (Langmuir) binding model using the previous method.

[3] = molecular target: human CD8αβ heterodimer, recombinant protein (human, UniProt P01732 22-182; P10966 22-170, limits assumed); assay: BLI kinetics, Fab, 37 °C
Method: as §1, §2

[4] = molecular target: T3, human CD8αα homodimer, recombinant protein (Acro Biosystems) (human, UniProt P01732 22-182); assay: BLI kinetics, Fab, 37 °C
T3 construct: also called CD8αα antigen; biotinylated CD8α recombinant protein (CDA-H82E3)
Method: as §1, §2

[5] = molecular target: T1, cynomolgus macaque CD8αα homodimer, …; assay: BLI kinetics, Fab, 37 °C as printed in the table
Method: as §1, §2

[6] = molecular target: T3, human CD8αα homodimer, recombinant …; assay: BLI kinetics, F(ab) on biotinylated CD8α (SA-XT sensor), 1:1 fit, 37 °C [CONT'ED]
Method: as §1

[7] = molecular target: T3, human CD8αα homodimer, recombinant …; assay: BLI kinetics, F(ab) on biotinylated CD8α (SA-XT sensor), 1:1 fit, 30 °C
Method: as §1

insulin (Sigma) = molecular target: T4, insulin (Sigma); assay: polyreactive ELISA, insulin coated, 100 nM antibody
T4 construct: Antigen of the polyreactivity ELISA
Method: Insulin ([…]; Sigma) and dsDNA ([…]; Sigma) were coated onto 96-well high-binding ELISA microplates (Corning) at 50 μL per well overnight at 4° C. Plates were blocked with PBS with 0.5% BSA (blocking buffer) at room temperature (RT) for 1 h, followed by three washes with PBST (PBS with 0.1% Tween-20). 50 μL of 100 nM antibody in blocking buffer was added to each well and incubated at RT for 1 h, followed by six washes with 100 μL of PBS. 50 μL of diluted anti-human IgG-horseradish peroxidase (HRP) conjugate (Jackson ImmunoResearch) was added to the wells and incubated for 1 h followed by another six washes. Finally, 50 μL of 3, 3′, 5, 5′-Tetramethylbenzidine (TMB) substrate (Fisher Scientific) was added to each well to develop the detection signal. The reactions were stopped by adding 50 μL of 2 M sulfuric acid to each well. The absorbance was measured at 450 nm using a multimode microplate reader. Ustekinumab as the control antibody with low polyreactivity and bococizumab as a highly polyreactive antibody control were also included in the polyreactive ELISA assessment.
The first assessment tested for low non-specific binding to dsDNA and insulin by ELISA. […] Thus, by this standard, none of the tested antibodies were polyreactive.

[8] = molecular target: T5, human CD8 on cells (CD8-overexpressing HEK293T cells, SupT1, HPB-ALL, human T cells, transfected HEK293 of … (human, UniProt P01732 22-235)); assay: flow cytometry on CD8-overexpressing HEK293T cells, non-linear fit of normalized gMFI
T5 construct: whole, on cells; also called cell surface CD8
Method: To obtain the results shown in FIG. 3A, that determined EC₅₀ values for antigen-specific binding, CD8-overexpressing HEK293T cells were dissociated in Versine solution (PBS buffer at pH 7.4 supplemented with 0.5 mM EDTA), and 2×10⁵ total cells were transferred to a V-bottom 96 well culture plate (Corning). Cells were washed twice with Cell Staining buffer (#420201, Biolegend). Each anti-CD8α antibody with human IgG1 isotype and Fc-silencing mutations L234A, L235A and P329A was diluted in four-fold antibody titration series from 100 μg/mL to 6.1 ng/ml into Cell Staining buffer. eFluor 780 Fixable Viability dye (eBioscience) was also included during antibody solutions at a 1:4000 dilution. Cells were stained with each diluted antibody solution for 30 minutes on ice. Cells were then washed three times with Cell Staining buffer and primary antibody binding was detected by staining with anti-human Fc BV421 conjugate antibody (#410704, Biolegend) at 1:100 dilution for 30 minutes on ice. After staining with the secondary detection antibody, cells were washed three times with Cell Staining buffer, fixed in FluoroFix buffer (Biolegend) and kept at 4° C. in the dark until analysis. Flow cytometry analysis on each sample was performed on an Agilent NovoCyte flow cytometer. Flow cytometry data was analyzed by Flowjo 10 (Becton, Dickinson & Company) to measure the geometric median fluorescence intensity (gMFI) of the on-cell binding from each antibody. The gMFI values were normalized with the gMFI measured in the sample stained with only the secondary detection antibody and plotted against the concentration of the added antibodies. The binding curves were constructed using the Graphpad Prism software, and EC₅₀ values were determined by non-linear curve fitting.

[9] = molecular target: T3, human CD8αα homodimer, recombinant …; assay: BLI steady state, whole hIgG1-LALAPA antibody on CD8α-His (Ni-NTA sensor), 30 °C
Method: To assess affinity of whole antibodies, steady state analysis was used as the bivalent nature of both whole antibody and CD8α complicates kinetic analysis. 50 nM CD8α-His (that is, CD8α with a C-terminal oligohistidine tag; Acro) was immobilized on Ni-NTA sensor probes. Binding was analyzed with a three-fold antibody dilutions series: 60 nM, 20 nM, 6.67 nM, 2.22 nM, 0.74 nM, and 0.25 nM. The antigen-loaded sensors were incubated in the diluted solutions to capture the whole IgG antibody for 300 s to record the association phase. Sensors were incubated in the kinetic buffer for 900 s to record the dissociation phase. The spin speed was 1000 rpm for all steps except the antigen loading step which was 400 rpm to control density of the antigen. The temperature of the performed assays was at 30° C. during the association and dissociation phases. The sensor data were baseline subtracted and further analyzed in GatorOne software (version 2.10) to determine the equilibrium dissociation constants (KD) of the antibodies by fitting the signals of the steady states to the 1:1 binding model.

[10] = molecular target: T6, custom recombinant human CD8α mouse IgG2a Fc fusion protein (human; mouse, UniProt P01732 22-182, limits assumed); assay: BLI kinetics, biotin-conjugated F(ab') on SA-XT sensor, HuCD8a mouse Fc fusion as analyte, 37 °C
T6 construct: Custom protein; also called human CD8α mouse Fc fusion protein; not shown: mouse IgG2a Fc
Method: The global fitting was performed with a 1:1 fitting model using GatorOne software as described below.
To measure the binding kinetics of the biotin-conjugated Fab molecule, streptavidin-immobilized SA-XT sensors (#160029, Gator Bio) were prehydrated in the kinetic buffer and loaded with […] biotinylated Fab sample CBD1033.37 or CBD1033.24 to a threshold response of 10 nm. […] The binder-loaded sensors were incubated in the diluted solutions to capture the CD8α protein for 1200 s to record the association phase. Sensors were finally incubated in the kinetic buffer for another 1200 s to record the dissociation phase. The spin speed for all steps was 1000 rpm. The temperature of the performed assays were at 37° C. during the association and dissociation. The sensor data were baseline subtracted, and global curve fitting of the kinetic data from six different analyte concentrations at a 1:1 monovalent binding model was performed using the GatorOne software (version v2.10) to determine the kinetic rate constants (kₒₙ and koff) and equilibrium dissociation constants (KD) of the analyzed binder.

T6 sequence (P01732 22-182 limits assumed): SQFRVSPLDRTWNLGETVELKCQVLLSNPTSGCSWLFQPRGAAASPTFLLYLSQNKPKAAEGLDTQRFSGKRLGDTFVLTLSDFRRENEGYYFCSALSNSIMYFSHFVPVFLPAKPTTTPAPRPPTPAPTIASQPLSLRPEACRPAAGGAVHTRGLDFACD
human CD8αβ heterodimer, recombinant protein, sequence (P01732 22-182 limits assumed, chain 1 of 2): as the sequence (P01732 22-182 limits assumed) above
human CD8αβ heterodimer, recombinant protein, sequence (P10966 22-170 limits assumed, chain 2 of 2): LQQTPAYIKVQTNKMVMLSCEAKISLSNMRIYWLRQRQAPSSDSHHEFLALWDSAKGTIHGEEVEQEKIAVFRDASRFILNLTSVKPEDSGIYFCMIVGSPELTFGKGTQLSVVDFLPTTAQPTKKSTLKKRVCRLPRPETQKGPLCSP
T3 sequence (P01732 22-182 limits assumed): as the sequence (P01732 22-182 limits assumed) above
T5 sequence (P01732 22-235): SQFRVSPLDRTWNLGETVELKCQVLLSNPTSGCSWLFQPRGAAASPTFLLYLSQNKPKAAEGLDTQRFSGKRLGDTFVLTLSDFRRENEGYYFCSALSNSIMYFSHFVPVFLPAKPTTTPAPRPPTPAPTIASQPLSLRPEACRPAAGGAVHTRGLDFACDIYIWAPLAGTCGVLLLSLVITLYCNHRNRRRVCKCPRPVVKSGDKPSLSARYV
T4 sequence (P01308 25-54, chain 1 of 2): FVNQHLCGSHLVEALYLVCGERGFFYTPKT
T4 sequence (P01308 90-110, chain 2 of 2): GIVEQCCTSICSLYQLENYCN

B1: CBD1017ch Fab (chimeric CT8 Fab) (Fab, V domains shown)
VH: EVQLQQSGPELVKPGASVKISCKASRYTFTDYNLHWVKLSHEKSLEWIGFIYPYNGGTGYNQKFKNKAKLTVDYSSSTAYMELRSLTSVDAAVYYCARDHRYNEGVSFDYWGQGTTLTVSS
VL: NIVLTQSPASLAVSLGQRATISCRASESVDGFGNSFMNWYQQKPGQSPKLLIYLASNLESGVPARFSGSGSRTDFTLTIDPVEADDAATYYCQQNNEDPYTFGGGTKLEIK
notes: Chimeric: variable regions of mouse CT8 (clone RPA-T8) with human constant parts; also called parental CBD1017ch Fab
Work on B1 yielded a Kd [1] of 2.26 nM, a koff [1] of 6.93e-05 s⁻¹ and a kon [1] of 30700 M⁻¹ s⁻¹. For the same binder, the Kd [2] was 24.8 nM, the koff [2] was 0.000503 s⁻¹ and the kon [2] was 20300 M⁻¹ s⁻¹. For the same binder, the Kd [3] was 5.75 nM, the koff [3] was 0.000179 s⁻¹ and the kon [3] was 31200 M⁻¹ s⁻¹. For the same binder, the Kd [4] was 1.08 nM, the koff [4] was 7.53e-05 s⁻¹ and the kon [4] was 69500 M⁻¹ s⁻¹. The Kd [5] was 2.26 nM, the koff [5] was 6.93e-05 s⁻¹ and the kon [5] was 30700 M⁻¹ s⁻¹. For the same binder, the Kd [6] was 1.08 nM, the koff [6] was 7.53e-05 s⁻¹ and the kon [6] was 69500 M⁻¹ s⁻¹. For the same binder, the Kd [7] was 0.814 nM, the koff [7] was 5.67e-05 s⁻¹ and the kon [7] was 69700 M⁻¹ s⁻¹.

B2: CBD1032 whole antibody, Fc-silenced human IgG1 (LALAPA) (antibody, V domains shown)
VH: QVQLVQSGAEVKKPGASVKVSCKASRYTFTDYNLHWVRQAPGQGLEWMGFIYPYNGGTGYAQKFQGRVTMTRDTSTSTVYMELSSLRSEDTAVYYCARDHRYNEGVSFDYWGQGTTVTVSS
VL: DIQMTQSPSSLSASVGDRVTITCRASESVDGFGNSFMNWYQQKPGKAPKLLIYLASNLESGVPSRFSGSGSGTDFTLTISSLQPEDFATYYCQQNNEDPYTFGQGTKLEIKR
In the case of B2, the “polyreactivity ELISA score” value (insulin (Sigma)) is reported as 1, the EC50 [8] is reported as 2.35 nM and the Kd [9] is reported as 1.4 nM.

B3: maleimide-PEG-biotin conjugated CBD1033.24 F(ab') (IgG4-derived) (Fab, V domains shown)
VH: QVQLVQSGAEVKKPGASVKVSCKASRYTFTDYNLHWVRQAPGQGLEWMGFIYPYNGGTGYAQKFQGRVTMTVDTSTSTAYMELSSLRSEDTAVYYCARDHRYNEGVSFDYWGQGTTVTVSS
VL: DIQLTQSPSSLSASVGDRATITCRASESVDGFGNSFMNWYQQKPGKAPKLLIYLASNLESGVPSRFSGSGSGTDFTLTISSVQPEDFATYYCQQNNEDPYTFGQGTKLEIKR
modifications: maleimide-PEG11-biotin on CH C227 (sequential numbering, corresponding to C239 in Kabat numbering)
notes: Loaded on streptavidin sensors through the biotin; also called biotinylated Fab sample CBD1033.24
For B3, the Kd [10] was 4.01 nM, the koff [10] was 0.00013 s⁻¹ and the kon [10] was 32400 M⁻¹ s⁻¹.

B4: CBD1034 whole antibody, Fc-silenced human IgG1 (LALAPA) (antibody, V domains shown)
VH: QVQLVQSGAEVKKPGASVKVSCKASRYTFTDYNLHWVRQAPGQGLEWMGFIYPYNGGTGYAQKFQGRVTMTVDTSTSTAYMELSSLRSEDTAVYYCARDHRYNEGVSFDYWGQGTTVTVSS
VL: DIQLTQSPSSLSASVGDRATITCRASESVDGFGNSFMNWYQQKPGKAPKLLIYLASNLESGVPSRFSGSGSRTDFTLTISSVQPEDFATYYCQQNNEDPYTFGQGTKLEIKR
With B4 the “polyreactivity ELISA score” value (insulin (Sigma)) was 1, the EC50 [8] was 2.71 nM and the Kd [9] was 4.63 nM.
